Test results as given in PMC4957052 (The Journal of Biological Chemistry, 2016).

Target: T1, M. musculus αT-catenin (wild type, full length) (M. musculus, UniProt Q65CL1 1-895)
T1 construct: Cloned into pGEX-TEV; cleaved from GST with tobacco etch virus protease; also called αT (testes)-catenin; WT αT-catenin; source: E. coli BL21(DE3), purified (glutathione-agarose, TEV cleavage, Mono Q, S200 gel filtration)
T1 sequence (looked up): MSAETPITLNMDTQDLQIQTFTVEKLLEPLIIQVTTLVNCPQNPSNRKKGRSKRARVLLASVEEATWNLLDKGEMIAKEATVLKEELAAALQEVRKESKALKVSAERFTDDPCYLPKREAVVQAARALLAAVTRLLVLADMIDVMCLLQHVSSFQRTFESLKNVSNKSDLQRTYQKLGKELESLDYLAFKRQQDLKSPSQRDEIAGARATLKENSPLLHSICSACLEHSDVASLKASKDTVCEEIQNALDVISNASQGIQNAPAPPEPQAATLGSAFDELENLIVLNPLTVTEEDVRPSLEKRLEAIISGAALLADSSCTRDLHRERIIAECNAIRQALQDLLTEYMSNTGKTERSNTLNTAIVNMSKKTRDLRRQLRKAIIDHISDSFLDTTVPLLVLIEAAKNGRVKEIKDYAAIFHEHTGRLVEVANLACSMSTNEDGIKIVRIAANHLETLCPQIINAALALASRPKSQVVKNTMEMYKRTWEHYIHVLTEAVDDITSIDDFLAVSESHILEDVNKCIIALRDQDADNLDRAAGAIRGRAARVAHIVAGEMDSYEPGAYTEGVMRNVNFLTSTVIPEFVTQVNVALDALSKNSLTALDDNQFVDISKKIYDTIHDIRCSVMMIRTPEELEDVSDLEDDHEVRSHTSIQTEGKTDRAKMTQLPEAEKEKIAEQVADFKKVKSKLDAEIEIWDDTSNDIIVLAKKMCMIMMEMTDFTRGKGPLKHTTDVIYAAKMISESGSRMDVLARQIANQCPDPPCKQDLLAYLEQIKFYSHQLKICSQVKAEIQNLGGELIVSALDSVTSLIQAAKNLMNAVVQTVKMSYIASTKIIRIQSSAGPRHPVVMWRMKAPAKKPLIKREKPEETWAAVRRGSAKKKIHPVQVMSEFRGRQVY
Assay: pull-down; 1-15 μg αT-catenin or V94D added to 15 μg GST-β-catenin on glutathione-agarose in 20 mM Tris pH 8, 150 mM NaCl, 5 mM DTT; >2 h at 4 °C (legend: 1 h at room temperature); five washes in PBS + 0.05% Tween 20, 5 mM DTT; Coomassie
Details: both partners purified

B1: GST-tagged full-length β-catenin (natural protein, mouse, UniProt Q02248 1-781, looked up)
chain: MATQADLMELDMAMEPDRKAAVSHWQQQSYLDSGIHSGATTTAPSLSGKGNPEEEDVDTSQVLYEWEQGFSQSFTQEQVADIDGQYAMTRAQRVRAAMFPETLDEGMQIPSTQFDAAHPTNVQRLAEPSQMLKHAVVNLINYQDDAELATRAIPELTKLLNDEDQVVVNKAAVMVHQLSKKEASRHAIMRSPQMVSAIVRTMQNTNDVETARCTAGTLHNLSHHREGLLAIFKSGGIPALVKMLGSPVDSVLFYAITTLHNLLLHQEGAKMAVRLAGGLQKMVALLNKTNVKFLAITTDCLQILAYGNQESKLIILASGGPQALVNIMRTYTYEKLLWTTSRVLKVLSVCSSNKPAIVEAGGMQALGLHLTDPSQRLVQNCLWTLRNLSDAATKQEGMEGLLGTLVQLLGSDDINVVTCAAGILSNLTCNNYKNKMMVCQVGGIEALVRTVLRAGDREDITEPAICALRHLTSRHQEAEMAQNAVRLHYGLPVVVKLLHPPSHWPLIKATVGLIRNLALCPANHAPLREQGAIPRLVQLLVRAHQDTQRRTSMGGTQQQFVEGVRMEEIVEGCTGALHILARDVHNRIVIRGLNTIPLFVQLLYSPIENIQRVAAGVLCELAQDKEAAEAIEAEGATAPLTELLHSRNEGVATYAAAVLFRMSEDKPQDYKKRLSVELTSSLFRTEPMAWNETADLGLDIGAQGEALGYRQDDPSYRSFHSGGYGQDALGMDPMMEHEMGGHHPGADYPVDGLPDLGHAQDLMDGLPPGDSNQLAWFDTDL
notes: β-catenin, full length; also called GST-β-catenin; GST-tagged β-catenin
- binding result: binds
